Experiment [1] deals with RAGE (Bos taurus) (UniProt Q28173). As to conditions: cited from earlier work.
Experiment [2] has the same target. As to conditions: cited from earlier work. This is another data set of the same source.
For experiment [3], the target named is RAGE C1 domain (Homo sapiens) (UniProt Q15109). As to conditions: cited from earlier work.
The target of experiment [4] is sRAGE-Fc sRAGE (Homo sapiens) (UniProt Q15109). To be noted: cited from earlier work.
The target in experiment [5] is RAGE V-domain (Mus musculus) (UniProt Q62151). As to conditions: cited from earlier work.
Sequence of RAGE V-domain (Mus musculus) (Q62151 23-109): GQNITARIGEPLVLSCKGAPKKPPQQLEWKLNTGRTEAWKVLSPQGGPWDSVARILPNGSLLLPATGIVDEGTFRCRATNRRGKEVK
In another experiment the target is T1, total bovine lung RAGE (bovine, UniProt Q28173 23-416, N-glycans (native glycosylation)).
T1 sequence (looked up): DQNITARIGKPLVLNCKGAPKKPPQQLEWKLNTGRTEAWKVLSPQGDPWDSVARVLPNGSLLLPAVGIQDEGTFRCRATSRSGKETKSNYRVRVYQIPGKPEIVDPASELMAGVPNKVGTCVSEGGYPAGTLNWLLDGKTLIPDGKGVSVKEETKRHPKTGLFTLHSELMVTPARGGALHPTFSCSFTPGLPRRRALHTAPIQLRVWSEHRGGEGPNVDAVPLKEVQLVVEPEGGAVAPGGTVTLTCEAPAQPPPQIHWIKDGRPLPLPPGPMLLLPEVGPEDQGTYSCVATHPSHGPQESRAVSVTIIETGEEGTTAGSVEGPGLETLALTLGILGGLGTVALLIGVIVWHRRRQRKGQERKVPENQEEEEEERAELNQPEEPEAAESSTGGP
The experiment in a line: ELISA.

The target in experiment [6] is T2, mAbGB3.1-enriched bovine RAGE (bovine, UniProt Q28173 23-416, N-glycans enriched for carboxylated glycans).
T2 sequence (looked up): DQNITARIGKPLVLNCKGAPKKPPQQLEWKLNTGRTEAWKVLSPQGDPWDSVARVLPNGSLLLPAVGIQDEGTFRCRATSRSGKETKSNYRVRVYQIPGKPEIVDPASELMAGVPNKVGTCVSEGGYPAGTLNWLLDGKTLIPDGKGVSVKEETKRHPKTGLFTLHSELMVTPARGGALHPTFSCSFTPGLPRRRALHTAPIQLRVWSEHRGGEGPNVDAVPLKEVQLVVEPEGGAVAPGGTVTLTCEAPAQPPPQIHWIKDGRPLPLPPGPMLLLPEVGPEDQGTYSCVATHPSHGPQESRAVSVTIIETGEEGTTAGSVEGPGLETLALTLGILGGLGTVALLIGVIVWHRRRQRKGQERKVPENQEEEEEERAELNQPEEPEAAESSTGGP
Briefly: ELISA. For orientation: An ELISA detects its analyte on a solid surface through an enzyme-linked reagent.

Experiment [7] concerns the target His-tagged human sRAGE expressed in U373 cells (human, UniProt Q15109 23-342, N-glycans). Briefly: ELISA.
In experiment [8] the target is His-tagged human sRAGE expressed in H4 cells (human, UniProt Q15109 23-342, N-glycans). The experiment in a line: ELISA.
Sequence of His-tagged human sRAGE expressed in H4 cells (Q15109 23-342): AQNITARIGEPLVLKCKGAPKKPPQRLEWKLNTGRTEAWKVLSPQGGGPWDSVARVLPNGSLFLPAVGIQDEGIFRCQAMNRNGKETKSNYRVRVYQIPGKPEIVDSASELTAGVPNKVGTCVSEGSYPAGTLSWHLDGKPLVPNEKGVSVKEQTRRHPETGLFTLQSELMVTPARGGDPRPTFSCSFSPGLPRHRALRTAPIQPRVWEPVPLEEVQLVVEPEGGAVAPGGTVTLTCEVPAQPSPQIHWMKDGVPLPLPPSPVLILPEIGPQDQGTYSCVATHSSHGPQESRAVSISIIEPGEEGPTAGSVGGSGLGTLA
Experiment [9] concerns the target His-tagged human sRAGE expressed in HL60 cells (human, UniProt Q15109 23-342, N-glycans). Briefly: ELISA.
Experiment [10] has as its target His-tagged human sRAGE expressed in HeLa cells (human, UniProt Q15109 23-342, N-glycans at N25 and N81). The experiment in a line: ELISA.
For experiment [11], the target named is His-tagged human sRAGE expressed in HEK293 cells (human, UniProt Q15109 23-342, N-glycans). Briefly: ELISA.
Sequence of His-tagged human sRAGE expressed in HEK293 cells (Q15109 23-342): as above

The text below walks through data of PMC2879712 (Journal of cellular biochemistry, 2010).

Where two headings read alike, the source gives them in different places.

Sequence of His-tagged human sRAGE expressed in U373 cells (Q15109 23-342): as above
Sequence of sRAGE-Fc sRAGE (Homo sapiens) (Q15109 23-342): as above
Sequence of His-tagged human sRAGE expressed in HL60 cells (Q15109 23-342): as above
Sequence of His-tagged human sRAGE expressed in HeLa cells (Q15109 23-342): as above
Sequence of RAGE C1 domain (Homo sapiens) (Q15109 124-221): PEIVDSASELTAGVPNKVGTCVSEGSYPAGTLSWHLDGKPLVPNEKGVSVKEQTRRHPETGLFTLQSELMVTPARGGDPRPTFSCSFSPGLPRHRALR

As a reminder, the Kd is the equilibrium constant for the complex coming apart. For S100A8/A9 (from UniProt P05109), the Kd with RAGE (Bos taurus) [1] is 7.62 nM; with RAGE (Bos taurus) [2] it was 34.4 nM.

Consider S100A12 (from UniProt P80511), for which the Kd is 90 nM in experiment [3], 80 nM in experiment [4] and 90 nM in experiment [5].

B1: purified human S100A11 (ligand, UniProt P31949 1-105, looked up)
chain: MAKISSPTETERCIESLIAVFQKYAGKDGYNYTLSKTEFLSFMNTELAAFTKNQKDPGVLDRMMKKLDTNSDGQLDFSEFLNLIGGLAMACHDSFLKAVPSQKRT
As for B1, the figures for the Kd (with total bovine lung RAGE; in experiment [6]) were 53.1 ± 7.8 nM and 30.9 ± 3.6 nM, respectively.

B2: recombinant human S100A12 (ligand, UniProt P80511 1-92, looked up)
chain: MTKLEEHLEGIVNIFHQYSVRKGHFDTLSKGELKQLLTKELANTIKNIKDKAVIDEIFQGLDANQDEQVDFQEFISLVAIALKAAHYHTHKE
Take B2: the binding result in experiment [7], in [8], in [9], in experiment [10] and in experiment [11] was “binds” in each case. In addition, the Kd in the experiment with total bovine lung RAGE amounted to 51.8 ± 20.6 nM; in experiment [6], 133 ± 46.4 nM.
